Results published in article PMC10953500.

What was measured:
[1] = target: receptor binding domain (RBD) of the SARS-CoV-2 spike protein with C-terminal 6xHis-tag (SARS-CoV-2) (UniProt P0DTC2); experiment: SPR
[2] = target: recombinant CD89 (Fc-alpha receptor, FcαRI) with C-terminal His-tag (UniProt P24071); experiment: SPR
Sequence of recombinant CD89 (Fc-alpha receptor, FcαRI) with C-terminal His-tag (P24071 22-227): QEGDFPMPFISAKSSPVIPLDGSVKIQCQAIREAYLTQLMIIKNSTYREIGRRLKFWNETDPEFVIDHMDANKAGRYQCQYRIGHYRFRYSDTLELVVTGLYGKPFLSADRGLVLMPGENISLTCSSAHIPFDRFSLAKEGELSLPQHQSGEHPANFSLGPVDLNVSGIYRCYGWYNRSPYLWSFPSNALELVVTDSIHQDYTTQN

Sequence of COVA2-15 IgA1 produced in the NbP4H10 knockout line pB109-1C ("H10-KO") (P01876 whole entry, looked up): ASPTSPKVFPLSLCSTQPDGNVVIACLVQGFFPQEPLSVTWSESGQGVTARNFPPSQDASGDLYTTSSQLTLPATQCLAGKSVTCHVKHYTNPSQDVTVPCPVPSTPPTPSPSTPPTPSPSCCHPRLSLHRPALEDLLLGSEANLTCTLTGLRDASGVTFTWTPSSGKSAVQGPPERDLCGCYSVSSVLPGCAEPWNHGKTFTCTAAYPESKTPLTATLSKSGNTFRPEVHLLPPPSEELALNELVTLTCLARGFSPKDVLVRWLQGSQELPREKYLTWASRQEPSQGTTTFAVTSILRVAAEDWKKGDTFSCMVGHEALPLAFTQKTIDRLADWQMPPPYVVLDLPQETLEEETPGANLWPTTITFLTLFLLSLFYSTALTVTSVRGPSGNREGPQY
Sequence of COVA2-15 IgA1 produced in N. benthamiana wildtype ("WT") (P01876 whole entry, looked up, tested part not stated): as the sequence (P01876 whole entry, looked up) above
Sequence of COVA2-15 IgA1 produced in the H10-KO line co-infiltrated with GalNAc-T2 and C1GalT1 ("H10+O") (P01876 whole entry, looked up, tested part not stated): as the sequence (P01876 whole entry, looked up) above
Sequence of COVA2-15 IgA1 produced in HEK293-6E cells ("HEK") (P01876 whole entry, looked up, tested part not stated): as the sequence (P01876 whole entry, looked up) above

Row | Substance | Kd [1] [nM] | Kd [2] [nM]
1 | COVA2-15 IgA1 produced in HEK293-6E cells ("HEK") (from UniProt P01876) | 0.85 | 36.7
2 | COVA2-15 IgA1 produced in the H10-KO line co-infiltrated with GalNAc-T2 and C1GalT1 ("H10+O") (from UniProt P01876) | 1.25 | 31.7
3 | COVA2-15 IgA1 produced in the NbP4H10 knockout line pB109-1C ("H10-KO") (from UniProt P01876) | 1.31 | 61.3
4 | COVA2-15 IgA1 produced in N. benthamiana wildtype ("WT") (from UniProt P01876) | 1.53 | 66.6
